Laboratory results from patent US20260207767A1 (ANAVEON, published 2026).
Positions count from the first letter of the chain named.

T1: IL-2R CD122-CD132 on Jurkat-PD1+CD122+ cells (UniProt P14784 27-551; P31785 23-369)
T1 sequence (looked up) 1: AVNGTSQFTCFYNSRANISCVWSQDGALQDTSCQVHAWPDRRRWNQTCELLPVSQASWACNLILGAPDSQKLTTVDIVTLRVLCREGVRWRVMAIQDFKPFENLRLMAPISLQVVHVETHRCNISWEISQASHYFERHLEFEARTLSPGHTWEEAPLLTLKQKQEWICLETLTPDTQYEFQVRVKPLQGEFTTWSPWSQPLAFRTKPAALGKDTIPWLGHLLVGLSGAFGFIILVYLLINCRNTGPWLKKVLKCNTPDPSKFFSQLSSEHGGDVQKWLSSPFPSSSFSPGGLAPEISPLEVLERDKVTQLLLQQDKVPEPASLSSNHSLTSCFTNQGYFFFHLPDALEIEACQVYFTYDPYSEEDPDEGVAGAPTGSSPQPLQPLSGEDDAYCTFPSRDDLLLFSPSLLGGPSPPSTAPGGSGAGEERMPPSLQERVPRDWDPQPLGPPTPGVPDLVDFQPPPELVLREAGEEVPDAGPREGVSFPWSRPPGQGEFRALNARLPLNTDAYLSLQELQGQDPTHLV
T1 sequence (looked up) 2: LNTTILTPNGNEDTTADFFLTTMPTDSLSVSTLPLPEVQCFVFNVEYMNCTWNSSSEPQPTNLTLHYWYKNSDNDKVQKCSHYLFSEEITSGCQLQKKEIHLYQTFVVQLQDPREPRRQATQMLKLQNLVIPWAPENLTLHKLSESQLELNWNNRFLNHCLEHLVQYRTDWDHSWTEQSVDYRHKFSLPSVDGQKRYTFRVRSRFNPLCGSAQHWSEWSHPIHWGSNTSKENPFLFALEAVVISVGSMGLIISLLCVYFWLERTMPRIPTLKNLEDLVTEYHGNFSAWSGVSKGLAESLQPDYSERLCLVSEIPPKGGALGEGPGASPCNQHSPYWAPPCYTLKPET

B1: JLI141 (bispecific antibody, human IgG1, lambda, L234A L235A)
heavy 1: EVQLLESGGGLVQPGGSLRLSCAASGFTFSINAMTWVRQAPGKGLEWVSTISGSGFSTYYADSLKGRFTISRDNSKNTLYLQMNSLRAEDTAVYYCAKEVYGDYWGQGTLVTVSSASTKGPSVFPLAPSSKSTSGGTAALGCLVKDYFPEPVTVSWNSGALTSGVHTFPAVLQSSGLYSLSSVVTVPSSSLGTQTYICNVNHKPSNTKVDKRVEPKSCDKTHTCPPCPAPEAAGGPSVFLFPPKPKDTLMISRTPEVTCVVVDVSHEDPEVKFNWYVDGVEVHNAKTKPREEQYNSTYRVVSVLTVLHQDWLNGKEYKCKVSNKALAAPIEKTISKAKGQPREPQVYTLPPSREEMTKNQVSLTCLVKGFYPSDIAVEWESNGQPENNYKTTPPVLDSDGSFFLTSKLTVDKSRWQQGNVFSCSVMHEALHNHYTQKSLSLSPGK
light: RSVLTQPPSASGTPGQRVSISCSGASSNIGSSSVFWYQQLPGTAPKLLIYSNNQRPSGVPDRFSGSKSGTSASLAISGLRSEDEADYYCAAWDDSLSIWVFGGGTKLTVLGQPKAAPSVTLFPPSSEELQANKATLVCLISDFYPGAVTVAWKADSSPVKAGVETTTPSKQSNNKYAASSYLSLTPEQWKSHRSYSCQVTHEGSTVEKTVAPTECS
heavy 2: AIRLTQSPSSFSASTGDRVTITCKASQSVDYGGGNFHLRPRDLISNINVIVLELKGSETTFMCEYADETATIVEFLNRWITFSQSIISTLTPTSSSTKKTQLQLEHLLLDLQMILNGINNYKNPKLTRMLTFKFYMPKKATELKHLQCLEEELKPLEEVLNLAQSKGGGGDSYMNWYQQKPGKAPKLLIYAASNLESGVPSRFSGSGSGTDFTLTISSLQSEDFATYYCQQSNEDPYTFGGGTKVEIKGGGGSGGGGSGGGGSEVQLVQSGAEVKKPGESLKISCKGSGYAFTNYLIEWVRQMPGKGLEWMGVINPGSGGTNYNEKFKGQVTISADKSISTAYLQWSSLKASDTAMYYCARWRGEGYYAYFDVWGQGTTVTVSSGGGGSGGGGSEVQLLESGGGLVQPGGSLRLSCAASGFTFSINAMTWVRQAPGKGLEWVSTISGSGFSTYYADSLKGRFTISRDNSKNTLYLQMNSLRAEDTAVYYCAKEVYGDYWGQGTLVTVSSASTKGPSVFPLAPSSKSTSGGTAALGCLVKDYFPEPVTVSWNSGALTSGVHTFPAVLQSSGLYSLSSVVTVPSSSLGTQTYICNVNHKPSNTKVDKRVEPKSCDKTHTCPPCPAPEAAGGPSVFLFPPKPKDTLMISRTPEVTCVVVDVSHEDPEVKFNWYVDGVEVHNAKTKPREEQYNSTYRVVSVLTVLHQDWLNGKEYKCKVSNKALAAPIEKTISKAKGQPREPQVYTLPPSREEMTKNQVSLYCLVKGFYPSDIAVEWESNGQPENNYKTTPPVLDSDGSFFLYSKLTVDKSRWQQGNVFSCSVMHEALHNHYTQKSLSLSPGK
B2: QAB373 (bispecific antibody, human IgG1, kappa, L234A L235A)
heavy 1: QVQLVQSGAEVKKPGASVKVSCKASGYTFTNFYIHWVRQAPGQGLEWMGSIYPNYGITAYNQKFKDRVTMTVDTSTSTAYMELRSLRSDDTAVYYCARGYSYAMDYWGQGTTVTVSSASVAAPSVFIFPPSDEQLKSGTASVVCLLNNFYPREAKVQWKVDNALQSGNSQESVTEQDSKDSTYSLSSTLTLSKADYEKHKVYACEVTHQGLSSPVTKSFNRGECDKTHTCPPCPAPEAAGGPSVFLFPPKPKDTLMISRTPEVTCVVVDVSHEDPEVKFNWYVDGVEVHNAKTKPREEQYNSTYRVVSVLTVLHQDWLNGKEYKCKVSNKALAAPIEKTISKAKGQPREPQVYTLPPSREEMTKNQVSLTCLVKGFYPSDIAVEWESNGQPENNYKTTPPVLDSDGSFFLTSKLTVDKSRWQQGNVFSCSVMHEALHNHYTQKSLSLSPGK
light 1: DIQMTQSPSSVSASVGDRVTITCSASQGISGDLNWYQQKPGKAPKLLIYHTSQLHSDVPSRFSGSGSGTDFTLTISSLQPEDFATYYCQGYSKDLLTFGGGTKLEIKSSASTKGPSVFPLAPSSKSTSGGTAALGCLVKDYFPEPVTVSWNSGALTSGVHTFPAVLQSSGLYSLSSVVTVPSSSLGTQTYICNVNHKPSNTKVDKRVEPKSC
heavy 2: EVQLVQSGAEVKKPGESLKISCKGSGYAFTNYLIEWVRQMPGKGLEWMGVINPGSGGTNYNEKFKGQVTISADKSISTAYLQWSSLKASDTAMYYCARWRGEGYYAYFDVWGQGTTVTVSSASTKGPSVFPLAPSSKSTSGGTAALGCLVKDYFPEPVTVSWNSGALTSGVHTFPAVLQSSGLYSLSSVVTVPSSSLGTQTYICNVNHKPSNTKVDKRVEPKSCDKTHTCPPCPAPEAAGGPSVFLFPPKPKDTLMISRTPEVTCVVVDVSHEDPEVKFNWYVDGVEVHNAKTKPREEQYNSTYRVVSVLTVLHQDWLNGKEYKCKVSNKALAAPIEKTISKAKGQPREPQVYTLPPSREEMTKNQVSLYCLVKGFYPSDIAVEWESNGQPENNYKTTPPVLDSDGSFFLYSKLTVDKSRWQQGNVFSCSVMHEALHNHYTQKSLSLSPGK
light 2: not shown
B3: RIB426 (bispecific antibody, human IgG1, kappa, L234A L235A)
heavy 1: B2 heavy 1 with S50R
light 1: B2 light 1 with L54R
heavy 2: B2 heavy 2
light 2: not shown
B4: GQM289 (bispecific antibody, human IgG1, kappa, lambda, L234A L235A)
heavy 1: B1 heavy 1
light 1: not shown
heavy 2: B2 heavy 2
light 2: not shown
B5: MDS446 (bispecific antibody, human IgG1, kappa, L234A L235A)
heavy 1: QVQLVQSGAEVKKPGASVKVSCKASGYTFTNFYIHWVRQAPGQGLEWMGSIYPNYGITAYNQKFKDRVTMTVDTSTSTAYMELRSLRSDDTAVYYCARGYSYAMDYWGQGTTVTVSSASTKGPSVFPLAPSSKSTSGGTAALGCLVKDYFPEPVTVSWNSGALTSGVHTFPAVLQSSGLYSLSSVVTVPSSSLGTQTYICNVNHKPSNTKVDKRVEPKSCDKTHTCPPCPAPEAAGGPSVFLFPPKPKDTLMISRTPEVTCVVVDVSHEDPEVKFNWYVDGVEVHNAKTKPREEQYNSTYRVVSVLTVLHQDWLNGKEYKCKVSNKALAAPIEKTISKAKGQPREPQVYTLPPSREEMTKNQVSLTCLVKGFYPSDIAVEWESNGQPENNYKTTPPVLDSDGSFFLTSKLTVDKSRWQQGNVFSCSVMHEALHNHYTQKSLSLSPGK
light: DIQMTQSPSSVSASVGDRVTITCSASQGISGDLNWYQQKPGKAPKLLIYHTSQLHSDVPSRFSGSGSGTDFTLTISSLQPEDFATYYCQGYSKDLLTFGGGTKLEIKRTVAAPSVFIFPPSDEQLKSGTASVVCLLNNFYPREAKVQWKVDNALQSGNSQESVTEQDSKDSTYSLSSTLTLSKADYEKHKVYACEVTHQGLSSPVTKSFNRGEC
heavy 2: AIRLTQSPSSFSASTGDRVTITCKASQSVDYGGGNFHLRPRDLISNINVIVLELKGSETTFMCEYADETATIVEFLNRWITFSQSIISTLTPTSSSTKKTQLQLEHLLLDLQMILNGINNYKNPKLTRMLTFKFYMPKKATELKHLQCLEEELKPLEEVLNLAQSKGGGGDSYMNWYQQKPGKAPKLLIYAASNLESGVPSRFSGSGSGTDFTLTISSLQSEDFATYYCQQSNEDPYTFGGGTKVEIKGGGGSGGGGSGGGGSEVQLVQSGAEVKKPGESLKISCKGSGYAFTNYLIEWVRQMPGKGLEWMGVINPGSGGTNYNEKFKGQVTISADKSISTAYLQWSSLKASDTAMYYCARWRGEGYYAYFDVWGQGTTVTVSSGGGGSGGGGSQVQLVQSGAEVKKPGASVKVSCKASGYTFTNFYIHWVRQAPGQGLEWMGSIYPNYGITAYNQKFKDRVTMTVDTSTSTAYMELRSLRSDDTAVYYCARGYSYAMDYWGQGTTVTVSSASTKGPSVFPLAPSSKSTSGGTAALGCLVKDYFPEPVTVSWNSGALTSGVHTFPAVLQSSGLYSLSSVVTVPSSSLGTQTYICNVNHKPSNTKVDKRVEPKSCDKTHTCPPCPAPEAAGGPSVFLFPPKPKDTLMISRTPEVTCVVVDVSHEDPEVKFNWYVDGVEVHNAKTKPREEQYNSTYRVVSVLTVLHQDWLNGKEYKCKVSNKALAAPIEKTISKAKGQPREPQVYTLPPSREEMTKNQVSLYCLVKGFYPSDIAVEWESNGQPENNYKTTPPVLDSDGSFFLYSKLTVDKSRWQQGNVFSCSVMHEALHNHYTQKSLSLSPGK
B6: TMU471 (bispecific antibody, human IgG1, kappa, L234A L235A)
heavy 1: B5 heavy 1 with S50R
light: B5 light with L54R
heavy 2: B5 heavy 2 with S444R

molecular target: T1, IL-2R CD122-CD132 on Jurkat-PD1+CD122+ …; test: cell-based or functional assay

**Q.** For B1, which “EC50 value for pSTAT5 induction, Jurkat-PD-1+CD122+ cells” value (shortened to “EC50 value for pSTAT5 induction”) is on record?
**A.** Its value is 0.2 nM.

**Q.** B2 was tested. Which “EC50 value for pSTAT5 induction” value did it give?
**A.** The value was 70 pM.

**Q.** Which “EC50 value for pSTAT5 induction” value does the source give for B3 here?
**A.** The value was 0.12 nM.

**Q.** Which “EC50 value for pSTAT5 induction” value does the source give for B4 here?
**A.** Its value is 0.22 nM.

**Q.** With B5 as the binder, how does the “EC50 value for pSTAT5 induction” value read?
**A.** Its value is 60 pM.

**Q.** How did the “EC50 value for pSTAT5 induction” value turn out when B6 was run?
**A.** The value was 60 pM.
